The text below walks through data of paper PMC9477746, “Mechanism of AAA+ ATPase-mediated RuvAB–Holliday junction branch migration” (Nature, 2022).

T1: RuvA (Salmonella typhimurium, UniProt P66746 1-203)
T1 sequence: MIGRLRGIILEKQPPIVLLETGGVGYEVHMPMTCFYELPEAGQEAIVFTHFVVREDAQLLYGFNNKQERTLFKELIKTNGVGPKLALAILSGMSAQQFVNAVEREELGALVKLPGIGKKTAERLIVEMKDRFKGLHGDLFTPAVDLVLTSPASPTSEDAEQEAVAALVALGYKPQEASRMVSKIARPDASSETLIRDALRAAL

B1: N-terminally truncated RuvB (16-333) from S. thermophilus (domain or fragment, UniProt Q03IE9 16-333, looked up)
chain: VERTLRPQYFKEYIGQDKVKDQLKIFIEAAKLRDEALDHTLLFGPPGLGKTTMAFVIANEMGVNLKQTSGPAIEKAGDLVAILNDLEPGDILFIDEIHRMPMAVEEVLYSAMEDYYIDIMIGAGETSRSVHLDLPPFTLVGATTRAGMLSNPLRARFGINGHMEYYELPDLTEIVERTSEIFEMTITPEAALELARRSRGTPRIANRLLKRVRDYAQIMGDGVIDDKIADQALTMLDVDHEGLDYVDQKILRTMIEMYGGGPVGLGTLSVNIAEERETVEDMYEPYLIQKGFIMRTRTGRVATAKAYEHMGYDYTRDN
notes: RuvB, Holliday junction AAA+ ATPase, Streptococcus thermophilus, residues 16-333; domains RuvB^L 21-181, RuvB^S 182-254, RuvB^H 255-330; C-terminal TEV site, linker and HA tag; TEV cleavage done during dialysis, so residues of the TEV site may remain at the C-terminus; Tetrameric by gel filtration in solution, hexamer on DNA in the cryo-EM complex; also called RuvB (S. thermophilus); RuvB motor; …
B2: HJ-Y2Ap (immobile Holliday junction) (structured_DNA)
DNA 1: CTCATCGAGAATCTGCCGAGAGACCGAGCAGAATTCTATGTGTTTACCAAGCGCTG
DNA 2: CAGCGCTTGGTAAACACATAGAATTCTGCTCGGTCTGAGCCGTCTAAGAGACCTAG
DNA 3: CTAGGTCTCTTAGACGGCTCACTGGCTGTGGGATCCGAGCTGTCTAGAGACATCGA
DNA 4: TCGATGTCTCTAGACAGCTCGGATCCCACAGCCAGTCTCGGCAGATTCTCGATGAG
B3: RuvA from S. typhimurium (natural protein, UniProt P66746 1-203, looked up)
chain: T1 sequence
notes: RuvA, Holliday junction branch migration protein, Salmonella typhimurium; three domains (I, II, III); Tetramer in solution by gel filtration; two tetramers (eight chains) on the Holliday junction in the cryo-EM complex; Cloned into pET-52b(+) by NcoI and SacI; also called RuvA (S. typhimurium); recombinant S. typhimurium RuvA; source: E. coli BL21(DE3), purified (HisTrap, Superdex 200 SEC)

Data set [1] concerns the molecule itself. The data set is described as follows: cryo-EM structure; in vitro reconstituted RuvAB-Holliday junction hetero-complex: SEC-purified RuvA-HJ mixed with RuvB, 10 mM MgCl2, equimolar ATPγS and ADP (1 mM), 37 °C 10 min, then on ice about 5 h before vitrification (dataset t2).
Data set [2] concerns the molecule itself. The data set is described as follows: SEC; Superdex 200 10/300GL, 100 mM NaCl, 1 mM EDTA, 0.5 mM DTT, 5% glycerol, 100 mM Tris-HCl pH 8; each protein alone; mass estimated from retention of a gel filtration standard.
A further data set concerns the target T1, RuvA. Description: EMSA; 5 mM EDTA; complex II (two tetramers) saturated at >500 nM RuvA; complex I (one tetramer) at <200 nM; EMSA: 30 mM Tris-HCl pH 8, 5 mM EDTA, 1 mM DTT, 100 ug/ml BSA, 30 min at 37 C; 6% PAGE at 4 C in 0.5x TAE. The conditions noted are these: protein: recombinant; tags: C-terminal His4; chain copies: 4; label: 5'-32P on one strand; four-way junction 1:2 2:3 3:4 4:1.

The target in data set [3] is B1. The data set is described as follows: cryo-EM structure; same reconstitution of the RuvAB-Holliday junction hetero-complex, on ice 30 min before vitrification (dataset t1). The note with it: both partners purified.

In the case of B1, the “stoichiometry N” value in data set [1] is 6; in data set [2], 4.

Take B2: the binding result with RuvA is reported as “binds”. As for B3, the “stoichiometry N” value in data set [3] amounted to 1 RuvA^D3 per RuvB hexamer; in data set [1] it was 4.
